Data from article PMC7610652 (Nature structural & molecular biology, 2021).

T1: RPC5, subunit of the human RNA polymerase III heterodimer (human, UniProt Q9NVU0 1-708)
T1 sequence: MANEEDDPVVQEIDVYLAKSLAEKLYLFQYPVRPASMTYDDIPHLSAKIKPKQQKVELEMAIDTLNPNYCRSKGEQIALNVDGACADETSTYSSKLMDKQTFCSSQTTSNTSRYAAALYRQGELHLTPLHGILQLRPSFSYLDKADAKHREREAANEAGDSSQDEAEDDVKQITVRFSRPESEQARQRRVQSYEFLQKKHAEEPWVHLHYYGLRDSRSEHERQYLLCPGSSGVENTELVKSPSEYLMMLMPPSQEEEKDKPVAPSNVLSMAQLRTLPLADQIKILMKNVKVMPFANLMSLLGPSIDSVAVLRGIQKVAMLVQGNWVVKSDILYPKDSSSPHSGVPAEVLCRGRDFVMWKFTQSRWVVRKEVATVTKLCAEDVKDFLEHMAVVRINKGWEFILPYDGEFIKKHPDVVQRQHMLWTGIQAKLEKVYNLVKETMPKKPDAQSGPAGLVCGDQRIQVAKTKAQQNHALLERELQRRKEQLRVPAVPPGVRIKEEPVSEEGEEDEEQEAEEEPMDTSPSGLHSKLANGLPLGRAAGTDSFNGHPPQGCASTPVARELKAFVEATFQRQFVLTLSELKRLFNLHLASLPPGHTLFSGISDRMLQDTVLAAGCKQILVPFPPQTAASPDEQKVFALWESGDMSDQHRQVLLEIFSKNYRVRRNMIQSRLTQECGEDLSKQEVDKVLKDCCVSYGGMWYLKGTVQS

T2: RPC1, subunit of human RNA polymerase III (human, UniProt O14802 1-1390)
T2 sequence: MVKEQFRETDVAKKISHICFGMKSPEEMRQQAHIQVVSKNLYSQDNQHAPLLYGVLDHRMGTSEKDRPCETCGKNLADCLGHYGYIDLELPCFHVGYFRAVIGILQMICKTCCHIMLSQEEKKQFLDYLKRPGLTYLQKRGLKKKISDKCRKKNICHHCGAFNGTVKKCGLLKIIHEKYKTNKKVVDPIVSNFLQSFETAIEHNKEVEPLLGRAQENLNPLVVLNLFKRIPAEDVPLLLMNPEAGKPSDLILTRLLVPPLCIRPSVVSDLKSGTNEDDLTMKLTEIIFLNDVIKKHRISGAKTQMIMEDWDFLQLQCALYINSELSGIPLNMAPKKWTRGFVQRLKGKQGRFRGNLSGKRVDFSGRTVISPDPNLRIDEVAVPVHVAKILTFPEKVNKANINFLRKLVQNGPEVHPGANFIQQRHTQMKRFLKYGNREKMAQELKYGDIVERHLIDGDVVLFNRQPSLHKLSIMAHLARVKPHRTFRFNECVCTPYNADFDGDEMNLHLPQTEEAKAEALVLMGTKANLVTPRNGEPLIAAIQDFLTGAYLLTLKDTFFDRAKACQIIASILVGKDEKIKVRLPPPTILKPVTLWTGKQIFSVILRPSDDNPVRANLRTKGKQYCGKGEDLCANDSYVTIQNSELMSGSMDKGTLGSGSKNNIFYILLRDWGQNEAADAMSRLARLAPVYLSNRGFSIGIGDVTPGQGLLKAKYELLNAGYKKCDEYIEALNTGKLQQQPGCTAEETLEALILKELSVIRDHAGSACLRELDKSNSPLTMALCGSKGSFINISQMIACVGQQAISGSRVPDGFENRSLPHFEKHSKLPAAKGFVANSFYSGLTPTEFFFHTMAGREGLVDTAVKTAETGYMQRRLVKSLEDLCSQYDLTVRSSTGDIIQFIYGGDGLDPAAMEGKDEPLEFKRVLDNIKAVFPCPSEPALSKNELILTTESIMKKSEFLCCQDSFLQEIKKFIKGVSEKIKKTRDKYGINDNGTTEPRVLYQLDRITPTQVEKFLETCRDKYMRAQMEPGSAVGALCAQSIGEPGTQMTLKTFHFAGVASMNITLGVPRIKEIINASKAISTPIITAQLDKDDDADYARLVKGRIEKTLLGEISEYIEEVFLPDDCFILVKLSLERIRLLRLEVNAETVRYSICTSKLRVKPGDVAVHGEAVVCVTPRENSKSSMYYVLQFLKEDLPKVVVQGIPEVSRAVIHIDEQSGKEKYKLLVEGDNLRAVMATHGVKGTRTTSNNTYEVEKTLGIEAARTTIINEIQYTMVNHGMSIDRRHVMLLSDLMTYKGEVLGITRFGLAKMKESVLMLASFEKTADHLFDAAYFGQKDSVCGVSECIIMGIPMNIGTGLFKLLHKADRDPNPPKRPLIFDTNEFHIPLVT

T3: RPC3, subunit of the human RNA polymerase III heterotrimer (human, UniProt Q9BUI4 1-534)
T3 sequence: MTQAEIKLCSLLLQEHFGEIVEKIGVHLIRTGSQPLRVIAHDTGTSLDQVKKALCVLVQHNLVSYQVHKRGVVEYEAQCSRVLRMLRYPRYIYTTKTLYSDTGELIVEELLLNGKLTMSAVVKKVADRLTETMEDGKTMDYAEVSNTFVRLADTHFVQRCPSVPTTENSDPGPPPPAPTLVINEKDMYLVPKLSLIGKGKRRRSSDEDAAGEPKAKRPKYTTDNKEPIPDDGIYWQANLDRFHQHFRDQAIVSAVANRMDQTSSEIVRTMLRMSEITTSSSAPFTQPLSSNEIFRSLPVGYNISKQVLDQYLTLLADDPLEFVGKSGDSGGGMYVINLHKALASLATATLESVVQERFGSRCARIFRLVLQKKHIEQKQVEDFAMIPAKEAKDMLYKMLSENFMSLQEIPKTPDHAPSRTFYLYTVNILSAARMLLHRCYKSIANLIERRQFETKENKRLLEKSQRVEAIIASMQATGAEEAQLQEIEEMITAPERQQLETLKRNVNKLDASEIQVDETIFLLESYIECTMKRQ

B1: RPC10, TFIIS-like subunit of human RNA polymerase III (natural protein)
chain: not shown
B2: RPC6, subunit of the human RNA polymerase III heterotrimer (natural protein)
chain: MAEVKVKVQPPDADPVEIENRIIELCHQFPHGITDQVIQNEMPHIEAQQRAVAINRLLSMGQLDLLRSNTGLLYRIKDSQNAGKMKGSDNQEKLVYQIIEDAGNKGIWSRDIRYKSNLPLTEINKILKNLESKKLIKAVKSVAASKKKVYMLYNLQPDRSVTGGAWYSDQDFESEFVEVLNQQCFKFLQSKAETARESKQNPMIQRNSSFASSHEVWKYICELGISKVELSMEDIETILNTLIYDGKVEMTIIAAKEGTVGSVDGHMKLYRAVNPIIPPTGLVRAPCGLCPVFDDCHEGGEISPSNCIYMTEWLEF
B3: RPC7α, subunit of the human RNA polymerase III heterotrimer (natural protein)
chain: MAGNKGRGRAAYTFNIEAVGFSKGEKLPDVVLKPPPLFPDTDYKPVPLKTGEGEEYMLALKQELRETMKRMPYFIETPEERQDIERYSKRYMKVYKEEWIPDWRRLPREMMPRNKCKKAGPKPKKAKDAGKGTPLTNTEDVLKKMEELEKRGDGEKSDEENEEKEGSKEKSKEGDDDDDDDAAEQEEYDEEEQEEENDYINSYFEDGDDFGADSDDNMDEATY
B4: RPC8, stalk subunit of human RNA polymerase III (natural protein)
chain: MFVLVEMVDTVRIPPWQFERKLNDSIAEELNKKLANKVVYNVGLCICLFDITKLEDAYVFPGDGASHTKVHFRCVVFHPFLDEILIGKIKGCSPEGVHVSLGFFDDILIPPESLQQPAKFDEAEQVWVWEYETEEGAHDLYMDTGEEIRFRVVDESFVDTSPTGPSSADATTSSEELPKKEAPYTLVGSISEPGLGLLSWWTSN
B5: RPC4, subunit of the human RNA polymerase III heterodimer (natural protein)
chain: MSEGNAAGEPSTPGGPRPLLTGARGLIGRRPAPPLTPGRLPSIRSRDLTLGGVKKKTFTPNIISRKIKEEPKEEVTVKKEKRERDRDRQREGHGRGRGRPEVIQSHSIFEQGPAEMMKKKGNWDKTVDVSDMGPSHIINIKKEKRETDEETKQILRMLEKDDFLDDPGLRNDTRNMPVQLPLAHSGWLFKEENDEPDVKPWLAGPKEEDMEVDIPAVKVKEEPRDEEEEAKMKAPPKAARKTPGLPKDVSVAELLRELSLTKEEELLFLQLPDTLPGQPPTQDIKPIKTEVQGEDGQVVLIKQEKDREAKLAENACTLADLTEGQVGKLLIRKSGRVQLLLGKVTLDVTMGTACSFLQELVSVGLGDSRTGEMTVLGHVKHKLVCSPDFESLLDHKHR

Legend:
Assay in all cases: cryo-EM structure
[1] = biological target: T1, RPC5, subunit of the human RNA …
[2] = biological target: T2, RPC1, subunit of human RNA polymerase …
[3] = biological target: B5
[4] = biological target: T3, RPC3, subunit of the human RNA …
[5] = biological target: B3

Row | Binder | binding result [1] | binding result [2] | binding result [3] | binding result [4] | binding result [5]
1 | B1 | binds | binds | binds |  | 
2 | B2 |  | binds |  | binds | 
3 | B3 |  | binds |  | binds | 
4 | B4 |  |  |  |  | binds
5 | B5 | binds | binds |  |  | 
